Results taken from patent US20140106371A1.

Assays:
[1] = target: asialotransferrin (human) (UniProt P02787); test: qualitative ELLA, lectin 2 µg/mL
[2] = target: Gal-α1,3-Gal-BSA glycoconjugate (UniProt P02769); test: ELLA lectin dose response
Sequence of Gal-α1,3-Gal-BSA glycoconjugate (P02769 25-607 limits assumed): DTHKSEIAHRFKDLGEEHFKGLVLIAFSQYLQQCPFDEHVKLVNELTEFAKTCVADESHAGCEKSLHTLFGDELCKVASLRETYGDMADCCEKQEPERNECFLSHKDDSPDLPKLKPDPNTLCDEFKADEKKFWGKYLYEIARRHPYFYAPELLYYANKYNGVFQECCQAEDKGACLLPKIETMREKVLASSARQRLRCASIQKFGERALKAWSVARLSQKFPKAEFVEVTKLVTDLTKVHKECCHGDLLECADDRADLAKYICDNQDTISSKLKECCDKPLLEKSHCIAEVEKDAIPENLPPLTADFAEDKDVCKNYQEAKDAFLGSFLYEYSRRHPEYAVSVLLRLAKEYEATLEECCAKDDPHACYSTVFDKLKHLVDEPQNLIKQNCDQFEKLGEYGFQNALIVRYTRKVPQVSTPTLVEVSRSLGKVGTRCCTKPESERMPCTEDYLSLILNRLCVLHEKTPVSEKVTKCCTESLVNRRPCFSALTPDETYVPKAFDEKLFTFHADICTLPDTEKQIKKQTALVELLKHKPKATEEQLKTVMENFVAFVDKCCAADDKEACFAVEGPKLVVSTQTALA

Sequence of asialotransferrin (human) (P02787 20-698 limits assumed): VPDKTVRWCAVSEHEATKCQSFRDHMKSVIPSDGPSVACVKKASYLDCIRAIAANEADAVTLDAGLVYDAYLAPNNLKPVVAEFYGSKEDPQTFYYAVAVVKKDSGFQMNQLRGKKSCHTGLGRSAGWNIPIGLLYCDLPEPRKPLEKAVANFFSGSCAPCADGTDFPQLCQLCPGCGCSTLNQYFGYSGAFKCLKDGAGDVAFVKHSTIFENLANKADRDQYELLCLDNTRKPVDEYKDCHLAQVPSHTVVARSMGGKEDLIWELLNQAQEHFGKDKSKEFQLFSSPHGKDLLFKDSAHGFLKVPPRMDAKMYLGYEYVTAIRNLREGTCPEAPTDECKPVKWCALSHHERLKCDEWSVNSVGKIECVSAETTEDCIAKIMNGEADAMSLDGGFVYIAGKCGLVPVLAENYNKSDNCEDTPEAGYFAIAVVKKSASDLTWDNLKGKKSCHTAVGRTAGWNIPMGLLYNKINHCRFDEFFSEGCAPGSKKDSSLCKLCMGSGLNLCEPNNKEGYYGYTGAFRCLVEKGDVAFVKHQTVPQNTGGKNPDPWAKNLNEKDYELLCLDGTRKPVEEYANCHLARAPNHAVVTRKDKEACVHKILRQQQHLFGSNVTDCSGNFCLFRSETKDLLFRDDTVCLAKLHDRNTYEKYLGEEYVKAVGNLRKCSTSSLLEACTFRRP

Row | Substance | ELLA signal relative to rPA-ILNmE6 [1] | lectin concentration at which the ELLA signal reached saturation [2]
1 | H50N (rPA-ILNm protein) (from UniProt Q05097 1-122) | 0.5 fold | 
2 | rPA-ILN (recombinant wild type PA-IL with an N-terminal RGS-6HIS affinity tag) (from UniProt Q05097 1-122) |  | > 1.25 µg/mL
3 | H50N:Q53G (from UniProt Q05097 1-122) | < 0.5 fold | 
